This assay deals with Spt16/Pob3 heterodimer (yeast FACT), full length (yeast) (UniProt P32558).
Sequence of UniProt P32558 (P32558 whole entry, chain 1 of 2): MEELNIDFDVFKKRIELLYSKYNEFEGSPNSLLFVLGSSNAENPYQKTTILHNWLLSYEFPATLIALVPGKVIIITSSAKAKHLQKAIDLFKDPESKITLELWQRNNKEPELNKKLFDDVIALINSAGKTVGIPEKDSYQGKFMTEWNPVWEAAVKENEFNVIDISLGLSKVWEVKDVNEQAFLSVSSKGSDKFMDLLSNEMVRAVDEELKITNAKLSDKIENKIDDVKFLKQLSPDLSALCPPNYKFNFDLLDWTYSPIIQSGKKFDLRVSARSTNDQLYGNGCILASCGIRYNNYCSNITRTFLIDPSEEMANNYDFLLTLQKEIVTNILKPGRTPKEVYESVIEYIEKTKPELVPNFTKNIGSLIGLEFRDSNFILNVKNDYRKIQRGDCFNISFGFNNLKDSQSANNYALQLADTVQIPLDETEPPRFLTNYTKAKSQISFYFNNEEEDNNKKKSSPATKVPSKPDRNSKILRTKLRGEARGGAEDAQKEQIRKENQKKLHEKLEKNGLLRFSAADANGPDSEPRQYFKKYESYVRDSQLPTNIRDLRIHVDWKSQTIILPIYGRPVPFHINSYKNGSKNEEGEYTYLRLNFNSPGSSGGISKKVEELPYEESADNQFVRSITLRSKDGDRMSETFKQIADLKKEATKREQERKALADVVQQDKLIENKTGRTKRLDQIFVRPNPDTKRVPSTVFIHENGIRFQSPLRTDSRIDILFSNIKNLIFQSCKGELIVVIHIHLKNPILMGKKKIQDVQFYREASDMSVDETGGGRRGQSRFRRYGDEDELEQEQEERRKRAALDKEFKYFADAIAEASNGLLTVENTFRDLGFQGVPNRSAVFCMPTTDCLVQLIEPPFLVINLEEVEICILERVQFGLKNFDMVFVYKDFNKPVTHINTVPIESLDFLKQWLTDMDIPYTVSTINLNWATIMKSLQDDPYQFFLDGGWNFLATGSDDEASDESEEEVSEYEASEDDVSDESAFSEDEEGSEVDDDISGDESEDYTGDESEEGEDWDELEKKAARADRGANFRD
Sequence of UniProt P32558 (Q04636 whole entry, chain 2 of 2, further chain): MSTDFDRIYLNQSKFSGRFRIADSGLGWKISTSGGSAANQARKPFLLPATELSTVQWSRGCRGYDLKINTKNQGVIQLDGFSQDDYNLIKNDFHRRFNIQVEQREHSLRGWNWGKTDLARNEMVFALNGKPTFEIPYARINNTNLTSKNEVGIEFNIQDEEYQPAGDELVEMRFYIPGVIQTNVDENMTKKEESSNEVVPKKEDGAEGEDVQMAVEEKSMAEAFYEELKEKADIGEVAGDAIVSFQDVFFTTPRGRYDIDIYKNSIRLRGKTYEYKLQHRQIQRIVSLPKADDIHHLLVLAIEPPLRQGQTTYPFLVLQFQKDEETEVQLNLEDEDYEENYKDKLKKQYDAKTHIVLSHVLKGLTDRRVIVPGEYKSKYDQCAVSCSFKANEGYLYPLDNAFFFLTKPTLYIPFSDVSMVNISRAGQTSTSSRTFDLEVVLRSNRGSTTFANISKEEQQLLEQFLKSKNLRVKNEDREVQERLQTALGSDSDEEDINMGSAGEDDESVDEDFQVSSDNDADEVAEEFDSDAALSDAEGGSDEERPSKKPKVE

“Nhp6 (non-histone protein), HMGB-domain factor (from UniProt P11632 1-93) (natural protein)” yielded a fraction of FACT particles in the open conformation (>90°) by negative-stain EM; 36% for FACT alone of 51%.

The values above are taken from publication PMC8748794.
